Laboratory results taken from article PMC5395944.

Molecular target: PglK-E510Q (C. jejuni) (UniProt Q0P9C4)
Assay: crystal structure

“PglK-E510Q (from UniProt Q0P9C4) (natural protein)” gave a stoichiometry N of 2.
